Experimental data as given in paper PMC2854129, “Spadin, a Sortilin-Derived Peptide, Targeting Rodent TREK-1 Channels: A New Concept in the Antidepressant Drug Design” (PLoS Biology, 2010).
Where no end group is shown, it is not given here. The star is where a group is joined. 125I = radioactive iodine label on Tyr, [125I]*

Columns and labels:
TREK-1 [1] = assay: Whole-cell patch-clamp, cultured hippocampal pyramidal neurons; type: cell-based, mouse; conditions: 10 µM aa, K+ blockers, 7 out of 70 recorded neurons, at −50 mV
Procedure: Cortical neurons were prepared from 14 old mouse embryos, whereas hippocampal neurons were prepared from newborn mice. Briefly, dissected brain areas were dissociated and neurons were plated on polylysine-treated 35 or 60 mm dishes and maintained in culture in Neurobasal medium supplemented with B27, Glutamax, and antibiotics for 2 to 3 wk before to be used for electrophysiological or biochemical experiments.
Supplementary file pbio.1000355.s004.tif: Figure S4 Effects of spadin on cultured pyramidal neurons from hippocampus. (A) Cultured pyramidal neuron from hippocampus, with on top, the patch-clamp pipette. Neurons were chosen according to their morphology. (B) Current recorded in response to ramps of potential obtained in the various conditions indicated (aa, arachidonic acid: 10 µM; Spadin: 1 µM; Fluoxetine: 20 µM). Neurons were recorded in the whole-cell configuration of the patch-clamp technique. In voltage-clamp, ramps of potential from −90 mV to 70 mV were applied every 10 s. The % variation of the current amplitude was always measured at −50 mV. The currents were recorded in response to such ramps in control conditions and in the presence of a cocktail of potassium blockers suitable to isolate the TREK currents (10 mM tetraethyl ammonium (TEA), 3 mM 4-aminopyridine (4-AP), 50 nM charybdotoxin, 10 µM glibenclamide, 100 nM apamin). […] The blocks were reversible. (C) Time course of spadin and fluoxetine effects. Applications are indicated by the horizontal bars. (2.03 MB TIF) Click here for additional data file.

TREK-1 channel = assay: Whole-cell patch-clamp, hippocampal CA3 pyramidal neurons in brain slices, wild-type mice; type: cell-based, mouse; conditions: 12 out of 28 recorded neurons; K+ blockers; aa 10 µM; mean ± SEM, n = 12
TREK-1 [2] = molecular target: T1, TREK-1 (Mus musculus, UniProt P97438); assay: Whole-cell patch-clamp, TREK-1 transfected COS-7 cells; type: cell-based; set-up: GFP; expressed in transfected cells; host or cells: COS-7 cells, DEAE-dextran transfection; conditions: 10 µM aa
T1 sequence (P97438 1-426): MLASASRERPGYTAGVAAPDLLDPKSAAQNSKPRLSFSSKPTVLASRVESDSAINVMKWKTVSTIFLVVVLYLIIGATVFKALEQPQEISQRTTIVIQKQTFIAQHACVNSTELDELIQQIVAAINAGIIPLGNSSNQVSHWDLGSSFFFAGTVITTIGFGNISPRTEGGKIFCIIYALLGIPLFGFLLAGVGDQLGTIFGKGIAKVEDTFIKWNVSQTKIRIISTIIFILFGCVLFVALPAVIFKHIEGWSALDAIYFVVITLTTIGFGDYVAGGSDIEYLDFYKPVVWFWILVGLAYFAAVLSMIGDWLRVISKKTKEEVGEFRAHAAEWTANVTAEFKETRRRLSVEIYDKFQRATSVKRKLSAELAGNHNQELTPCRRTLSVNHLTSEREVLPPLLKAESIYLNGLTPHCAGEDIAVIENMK
Procedure: All electrophysiological experiments were done on COS-7 cells seeded at a density of 20,000 cells/35-mm dish 24 h before transfection. Cells were transfected by the classical DEAE-dextran method with TREK-1-GFP plasmids (0.1 µg/µL). Cells were visualized 48–72 h after transfection using fluorescence.
The whole-cell patch-clamp technique was used to evaluate TREK-1 potassium channel current by using a RK 400 patch-clamp amplifier (Axon Instruments, USA), as previously described. Currents were lowpass filtered at 3 kHz, digitized at 10 kHz using a 12-bit analog-to-digital converter. […] The bath solution contained (in mM) 150 NaCl, 5 KCl, 3 MgCl2, 1 CaCl2, and 10 HEPES, adjusted to pH 7.4 with NaOH; the patch pipette solution contained (in mM) 155 KCl, 3 MgCl2, 5 EGTA, and 10 HEPES, adjusted to pH 7.2 with KOH. Cells were clamped at −80 mV and voltage changes were either applied by ramp (from −100 to 50 mV, 1 s in duration) or by step (from −100 to 40 mV, 1.5 s in duration). Cells were continuously superfused with a microperfusion system. The pipette capacitance was not subtracted from total membrane capacitance and there was no leak subtraction. […]
Pclamp software was used to analyze currents recorded in the whole-cell mode measured at 0 mV. Results are expressed as means ± SD. […]

TREK-1 [3] = molecular target: T1, TREK-1; assay: Competition binding, 125I-spadin, TREK-1 transfected COS-7 cell homogenates; set-up: expressed in transfected cells; host or cells: COS-7 cells, DEAE-dextran transfection; conditions: 0.2 nM 125I-spadin; TREK-1 transfected COS-7 homogenates; Tris-HCl pH 7.4, 0.1% BSA; mean of duplicates from 2 to 5 independent experiments
Procedure: For competition experiments, homogenates from TREK-1 transfected COS-7 or C13NJ cells were incubated with 0.2 nM ^125I-spadin or ^125I-NT (200,000 cpm in 250 µl) iodinated and purified as previously described. Incubations were performed in 50 mM Tris-HCl, pH 7.4 containing 0.1% BSA in the presence of increasing concentrations of non-radioactive spadin or NT (10^−10 to 10^−5M). Incubations were terminated by addition of 2 ml of ice-cold binding buffer followed by filtration through cellulose acetate filters (Sartorius, Göttingen, Germany) and washing twice with 2 ml of ice-cold buffer. Radioactivity on filters was counted with a gamma-counter.

TREK-1 [4] = molecular target: T1, TREK-1; assay: Association kinetics and internalization of 125I-spadin on whole COS-7 cells expressing TREK-1; type: cell-based; set-up: expressed in transfected cells; host or cells: COS-7 cells, DEAE-dextran transfection; conditions: 37°C; for intracellular (acid-NaCl wash resistant) fraction of total bound 125I-spadin: 30 min, acid-NaCl wash 2 min
Procedure: Cells, grown on 12 mm multiwell-dishes, were incubated with 0.2 nM ^125I-spadin for various times at 37°C in an Earle's Tris-Hepes buffer (cell binding buffer). Incubations were terminated by washing cells twice with the binding buffer or with the same buffer containing 0.5 M NaCl, pH 4, for 2 min to remove non-sequestrated radioactivity (acid-NaCl wash). Cells were harvested with 1 ml of 0.1 N NaOH and counted in a gamma-counter. Non-specific binding was determined in the presence of 10 µM unlabeled spadin.

[5] = tested on: non-transfected COS-7 cells; assay: 125I-spadin binding to non-transfected COS-7 cells
[6] = molecular target: TREK-1 channel (KCNK2), transfected in COS-7 cells (mouse) (UniProt P97438)
NTSR3/Sortilin = NTSR3/Sortilin (UniProt Q99523); conditions: cited from earlier work
Sequence of NTSR3/Sortilin (Q99523 78-755): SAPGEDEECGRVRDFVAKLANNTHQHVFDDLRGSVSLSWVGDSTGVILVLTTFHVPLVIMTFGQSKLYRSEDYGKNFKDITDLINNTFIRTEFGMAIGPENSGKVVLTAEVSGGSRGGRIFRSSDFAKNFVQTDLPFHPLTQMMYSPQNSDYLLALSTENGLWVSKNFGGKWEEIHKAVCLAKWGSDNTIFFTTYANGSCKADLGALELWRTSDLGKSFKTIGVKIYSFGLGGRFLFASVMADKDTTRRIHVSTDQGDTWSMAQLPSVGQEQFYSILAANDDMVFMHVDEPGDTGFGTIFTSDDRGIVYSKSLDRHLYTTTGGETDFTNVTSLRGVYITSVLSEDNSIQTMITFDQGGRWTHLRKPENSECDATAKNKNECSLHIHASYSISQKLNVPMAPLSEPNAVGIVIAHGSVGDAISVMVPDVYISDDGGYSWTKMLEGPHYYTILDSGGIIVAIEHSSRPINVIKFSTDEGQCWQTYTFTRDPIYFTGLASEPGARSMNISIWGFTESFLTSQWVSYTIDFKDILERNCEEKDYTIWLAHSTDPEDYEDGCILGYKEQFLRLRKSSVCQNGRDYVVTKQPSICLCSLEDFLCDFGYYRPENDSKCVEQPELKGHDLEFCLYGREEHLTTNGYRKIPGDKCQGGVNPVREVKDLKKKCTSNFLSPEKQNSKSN

TREK-1 [7] = molecular target: T2, TREK-1 (Mus musculus, UniProt P97438); assay: radioligand binding
T2 chain: T1 sequence (P97438 1-426)

TREK-1 [8] = molecular target: T2, TREK-1; assay: radioligand competition

Sequence of sortilin propeptide 1-44 (Q99523 34-77): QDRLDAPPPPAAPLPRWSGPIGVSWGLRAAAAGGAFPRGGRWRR

## CCCCC/C=C\C/C=C\C/C=C\C/C=C\CCCC(=O)O [arachidonic acid]
TREK-1 [1]
  increase of remaining current by arachidonic acid: about 50%
TREK-1 channel
  increase in amplitude of remaining current by arachidonic acid: 23.3%±4.8%
TREK-1 [2]; as previously described [21]
  activation of TREK-1 basal channel activity: strongly and reversibly activated

## QDRLDAPPPPAAPLPR [Gln1-Arg16, N-terminal fragment of the full length propeptide]
TREK-1 [3]
  affinity for TREK-1: 1 µM
TREK-1 [2]; after 90 s of application, Figure S2
  effect on aa-induced current increase: unable to inhibit the current increase

## ^125I-spadin: monoiodinated spadin (on Tyr0), HPLC purified (Y(125I)APLPRWSGPIGVSWGLR)
TREK-1 [4]; 0.2 nM 125I-spadin, whole COS-7 cells expressing TREK-1
  time to plateau of cell-associated radioactivity: ≤ 30 min
TREK-1 [4]
  intracellular (acid-NaCl wash resistant) fraction of total bound 125I-spadin: 80%
TREK-1 [4]; listed as 125I-labelled spadin
  intracellular (acid-NaCl wash resistant) fraction of total bound 125I-spadin: about 80%
[5]
  125I-spadin binding: totally devoid of ^125I-Spadin binding

## full length propeptide of NTSR3/Sortilin (Gln1-Arg44)
[6]
  block of the arachidonic acid-stimulated TREK-1 current at 0 mV, whole-cell patch clamp, TREK-1 transfected COS-7 cells, 500 nM propeptide: 41%

## sortilin propeptide 1-44 (from UniProt Q99523)
NTSR3/Sortilin
  Kd: 5 nM

## APLPRWSGPIGVSWGLR [spadin]
TREK-1 [7]
  Kd: ~10 nM

## QDRLDAPPPPAAPLPR [propeptide N-terminal fragment Gln1-Arg16 1-16]
TREK-1 [8]
  Kd: 1000 nM
